This note sets out measurements from the Immune Epitope Database (IEDB).

pKd: −log10 of the molar value. Where only a bound is given, the exact number is not on record here.

Assay [1] concerns the target HLA-A*03:01. The experiment in a line: IEDB peptide-MHC binding, purified MHC/competitive/fluorescence; filed as Kd, often an IC50 or EC50 that approximates it; ≥ and ≤ were set here for values at or beyond the usual limits of such assays.
In assay [2] the target is HLA-B*45:06. The assay is described as above. The settings on record: source organism: Salmonella enterica subsp. enterica serovar Typhi.
Assay [3] concerns the target HLA-B*83:01. Described as above. The settings on record: source organism: Salmonella enterica subsp. enterica serovar Typhi.
In assay [4] the target is HLA-B*15:42. The assay is described as above. The note with it: source organism: Salmonella enterica subsp. enterica serovar Typhi.
The target in assay [5] is HLA-A*69:01. The description is as above.
Assay [6] addresses HLA-B*39:01. The description is as above.
The target in assay [7] is HLA-A*26:01. Described as above.
The target of assay [8] is HLA-B*57:01. The description is as above.
Assay [9] has as its target HLA-B*51:01. Described as above.
Assay [10] concerns the target HLA-B*18:01. The description is as above.
Assay [11] concerns the target HLA-A*02:01. The assay is described as above.
Assay [12] has as its target HLA-B*46:01. The description is as above.
Assay [13] addresses HLA-B*27:03. The assay is described as above.
The target of assay [14] is HLA-A*02:03. Description: IEDB peptide-MHC binding, purified MHC/direct/fluorescence; filed as Kd, often an IC50 or EC50 that approximates it; ≥ and ≤ were set here for values at or beyond the usual limits of such assays.
Assay [15] has as its target HLA-A*02:12. The description is as above.
For assay [16], the target named is HLA-A*02:19. Described as above.
In assay [17] the target is HLA-A*11:01. The assay is described as above.
The target in assay [18] is HLA-A*68:02. Described as above.
Assay [19] has as its target HLA-A*69:01. Described as above. The note with it: source organism: Mammarenavirus juninense.
In assay [20] the target is HLA-B*39:01. The assay is described as above.
For assay [21], the target named is HLA-A*01:01. The description is as above.
Assay [22] deals with HLA-B*15:01. Described as above. The note with it: source organism: Mammarenavirus juninense.
Assay [23] concerns the target HLA-B*57:01. Described as above. The note with it: source organism: Mammarenavirus juninense.
For assay [24], the target named is HLA-B*40:01. The assay is described as above.
Assay [25] concerns the target HLA-B*07:02. Described as above.
In assay [26] the target is HLA-B*27:05. The description is as above.
For assay [27], the target named is HLA-A*03:01. The description is as above.
The target of assay [28] is HLA-A*29:02. The description is as above.
Assay [29] concerns the target HLA-B*18:01. Described as above. The note with it: source organism: Mammarenavirus juninense.
Assay [30] concerns the target HLA-A*02:01. Described as above. The note with it: source organism: Mammarenavirus juninense.
The target in assay [31] is HLA-B*46:01. Described as above.
Assay [32] concerns the target HLA-A*31:01. Described as above. The note with it: source organism: Mammarenavirus juninense.
In assay [33] the target is HLA-B*44:02. Described as above.
Assay [34] concerns the target HLA-B*58:01. The assay is described as above. The note with it: source organism: Mammarenavirus juninense.
In assay [35] the target is HLA-B*15:17. The experiment in a line: IEDB peptide-MHC binding, purified MHC/competitive/fluorescence; filed as Kd, often an IC50 or EC50 that approximates it; ≥ and ≤ were set here for values at or beyond the usual limits of such assays.
The target in assay [36] is HLA-A*24:03. The experiment in a line: IEDB peptide-MHC binding, purified MHC/direct/fluorescence; filed as Kd, often an IC50 or EC50 that approximates it; ≥ and ≤ were set here for values at or beyond the usual limits of such assays.
Assay [37] deals with HLA-A*02:16. The assay is described as above. The note with it: source organism: Coxiella burnetii.
Assay [38] addresses HLA-B*15:01. Description: IEDB peptide-MHC binding, purified MHC/competitive/fluorescence; filed as Kd, often an IC50 or EC50 that approximates it; ≥ and ≤ were set here for values at or beyond the usual limits of such assays. The settings on record: source organism: Hantavirus HPR/02-73.
The mark [39] stands for this setting: source organism: Cryptosporidium parvum Iowa II.
[40] abbreviates: source organism: Mammarenavirus juninense.
Where [41] appears, read: source organism: Coxiella burnetii.
Setting [42] is: source organism: Mammarenavirus lassaense.
Where [43] appears, read: source organism: Mycobacterium tuberculosis variant bovis BCG str. Pasteur 1173P2.
[44] abbreviates: source organism: Hantavirus HPR/02-73.
[45] abbreviates: source organism: Araucaria virus.

In general, pKd refers to the Kd on a negative log10 scale, so that one unit is a factor of ten. Higher therefore signals a small Kd. FMLSVHYRK: in assay [1] (source organism: Listeria monocytogenes HCC23), the negative logarithm of the Kd (pKd) was 6.44.
With FTFKVNSVK, the pKd is 6.82 in assay [1] (source organism: Salmonella enterica subsp. enterica serovar Typhi), ≤ 5.30 in [2], ≤ 5.30 in [3] and ≤ 5.30 in [4].
As for GFPFFIMPK, the pKd in assay [5] (setting [39]), in assay [6] (setting [39]), in [7] (setting [39]), in [8] (setting [39]), in assay [9] (setting [39]) and in assay [10] (setting [39]) was ≤ 4.70 throughout. The pKd in assay [11] (setting [39]), in assay [12] (setting [39]), in assay [13] (setting [39]), in [14] (setting [39]), in [15] (setting [39]) and in assay [16] (setting [39]) was ≤ 4.70 in each case. In addition, the pKd is 7.11 in assay [17] (setting [39]) and ≤ 4.70 in [18] (setting [39]).
Regarding GKLDPTNTL, the pKd in assay [19] was ≤ 4.70; in assay [20] (setting [40]), 5.52; in [21] (setting [40]), ≤ 4.70; in [22], ≤ 4.70; in [23], ≤ 4.70; in [24] (setting [40]), ≤ 4.70. In addition, the pKd in assay [25] (setting [40]), in [26] (setting [40]), in [27] (setting [40]), in assay [28] (setting [40]), in [29] and in assay [30] was ≤ 4.70 in each case. The pKd in assay [31] (setting [40]), in assay [32], in [33] (setting [40]) and in assay [34] was ≤ 4.70 throughout.
In the case of HISWQGPGK, the pKd in [1] (source organism: Vibrio atlanticus LGP32) was 6.66.
As for KFFMVHSLK, the pKd in [5] (setting [41]), in assay [6] (setting [41]), in [7] (setting [41]), in assay [8] (setting [41]), in assay [35] (setting [41]) and in [9] (setting [41]) was ≤ 4.70 throughout. The pKd in [10] (setting [41]), in assay [11] (setting [41]), in assay [12] (setting [41]), in assay [13] (setting [41]), in assay [14] (setting [41]) and in [15] (setting [41]) was ≤ 4.70 throughout. Besides, the pKd in [16] (setting [41]) was ≤ 4.70; in assay [17] (setting [41]), 6.22; in [36] (setting [41]) it was ≤ 4.70; in assay [18] (setting [41]), ≤ 4.70; in [37], ≤ 4.70.
On to KREEHYIVL, for which the pKd in [20] (setting [42]) is 7.00; in assay [25] (setting [42]) it was ≤ 4.70; in assay [26] (setting [42]) it was ≤ 4.70; in assay [27] (setting [42]), ≤ 4.70; in [31] (setting [42]) it was ≤ 4.70; in assay [33] (setting [42]), ≤ 4.70.
For MTSGSSSGF, the pKd was ≤ 5.30 in assay [21] (source organism: Mycobacterium tuberculosis) and 7.29 in [28] (source organism: Mycobacterium tuberculosis H37Rv).
On to QETWTRLVL, for which the pKd in assay [20] (setting [43]) was 6.97; in assay [24] (setting [43]), 7.41.
The sequence RLLHRTTRH showed a negative logarithm of the Kd (pKd) in assay [1] (source organism: Burkholderia vietnamiensis G4) of 7.92.
In [1] (source organism: Yersinia pestis Nepal516), VIWAASGFY had a pKd of 7.02.
As for WKAIGAYIL, the pKd in [5] (setting [44]), in assay [7] (setting [44]), in assay [38], in assay [8] (setting [44]), in [35] (setting [44]) and in assay [9] (setting [44]) was ≤ 4.70 in each case. For the same sequence, the pKd was ≤ 4.70 in [10] (setting [44]); ≤ 4.70 in assay [12] (setting [44]); ≤ 4.70 in assay [13] (setting [44]); 7.57 in assay [20] (source organism: Juquitiba virus); ≤ 4.70 in assay [14] (setting [45]); ≤ 4.70 in assay [15] (setting [45]). Further, the pKd in assay [16] (setting [45]), in assay [27] (setting [45]), in assay [28] (setting [45]), in assay [36] (setting [45]) and in [18] (setting [45]) was ≤ 4.70 throughout.
